Data as given in US20080311130A1 (IMMUNE DISEASE INSTITUTE, published 2008).
Changes are numbered by the printed parent chain. Names may count otherwise.

B1: soluble αL I domain mutant F292G, Asn-129 to Tyr-307 (receptor)
chain: NVDLVFLFDGSMSLQPDEFQKILDFMKDVMKKLSNTSYQFAAVQFSTSYKTEFDFSDYVKWKDPDALLKHVKHMLLLTNTFGAINYVATEVFREELGARPDATKVLIIITDGEATDSGNIDAAKDIIRYIIGIGKHFQTKESQETLHKFASKPASEFVKILDTGEKLKDLFTELQKKIY
B2: soluble αL I domain mutant F265S, Asn-129 to Tyr-307 (receptor)
chain: B1 chain with F137S, G164F
B3: soluble αL I domain mutant F292A, Asn-129 to Tyr-307 (receptor)
chain: B1 chain with G164A
B4: αL I domain clone m10b (E293G), yeast-displayed (receptor, not shown: large carriers; small tags and cut ends)
chain: NVDLVFLFDGSMSLQPDEFQKILDFMKDVMKKLSNTSYQFAAVQFSTSYKTEFDFSDYVKWKDPDALLKHVKHMLLLTNTFGAINYVATEVFREELGARPDATKVLIIITDGEATDSGNIDAAKDIIRYIIGIGKHFQTKESQETLHKFASKPASEFVKILDTFGKLKDLFTELQKKIYVIEGTSKQDLT
B5: αL I domain clone f1 (L289A), yeast-displayed (receptor, not shown: large carriers; small tags and cut ends)
chain: B4 chain with L161A, G165E
B6: αL I domain clone m7 (F292S), yeast-displayed (receptor)
chain: B4 chain with F164S, G165E
notes: yeast surface display; not shown: Aga2, linker and hemagglutinin tag of pCTCON; c-myc tag
B7: αL I domain clone m2 (I258T, T267A, F277A), yeast-displayed (receptor)
chain: B4 chain with I130T, T139A, F149A, G165E
notes: as for B6
B8: αL I domain clone m12c (I309T), yeast-displayed (receptor)
chain: B4 chain with G165E, I181T
notes: as for B6
B9: αL I domain clone m10 (F265L, E293G, K294E, K296E, V308I), yeast-displayed (receptor)
chain: B4 chain with F137L, K166E, K168E, V180I
notes: as for B6
B10: αL I domain clone m15a (F277L), yeast-displayed (receptor)
chain: B4 chain with F149L, G165E
notes: as for B6
B11: αL I domain clone f11 (L295W), yeast-displayed (receptor)
chain: B4 chain with G165E, L167W
notes: as for B6
B12: αL I domain clone m3 (G262E), yeast-displayed (receptor)
chain: B4 chain with G134E, G165E
notes: as for B6
B13: αL I domain clone f8 (L295A), yeast-displayed (receptor)
chain: B4 chain with G165E, L167A
notes: as for B6
B14: αL I domain clone m15 (F277L, I288T), yeast-displayed (receptor)
chain: B4 chain with F149L, I160T, G165E
notes: as for B6
B15: αL I domain clone f7 (F292P), yeast-displayed (receptor)
chain: B4 chain with F164P, G165E
notes: as for B6
B16: αL I domain clone f6 (F292G), yeast-displayed (receptor)
chain: B4 chain with F164G, G165E
notes: as for B6
B17: αL I domain clone m9 (F292S, Y177R, L204Q), yeast-displayed (receptor)
chain: B4 chain with Y49R, L76Q, F164S, G165E
notes: as for B6
B18: αL I domain clone f2 (L289G), yeast-displayed (receptor)
chain: B4 chain with L161G, G165E
notes: as for B6
B19: αL I domain clone f10 (L295Q), yeast-displayed (receptor)
chain: B4 chain with G165E, L167Q
notes: as for B6
B20: αL I domain clone m8 (F292S, P281E), yeast-displayed (receptor)
chain: B4 chain with P153E, F164S, G165E
notes: as for B6
B21: αL I domain clone m1 (I258T), yeast-displayed (receptor)
chain: B4 chain with I130T, G165E
notes: as for B6
B22: αL I domain clone m6 (F209Y, L289P), yeast-displayed (receptor)
chain: B4 chain with F81Y, L161P, G165E
notes: as for B6
B23: αL I domain clone f9 (L295P), yeast-displayed (receptor)
chain: B4 chain with G165E, L167P
notes: as for B6
B24: αL I domain clone f5 (F292A), yeast-displayed (receptor)
chain: B4 chain with F164A, G165E
notes: as for B6
B25: αL I domain clone m5a (L274I), yeast-displayed (receptor)
chain: B4 chain with L146I, G165E
notes: as for B6
B26: αL I domain clone m11 (L295P, Q303R), yeast-displayed (receptor)
chain: B4 chain with G165E, L167P, Q175R
notes: as for B6
B27: αL I domain clone f3 (L289P), yeast-displayed (receptor)
chain: B4 chain with L161P, G165E
notes: as for B6
B28: αL I domain clone f4 (L289W), yeast-displayed (receptor)
chain: B4 chain with L161W, G165E
notes: as for B6
B29: αL I domain clone m13 (F265S), yeast-displayed (receptor)
chain: B4 chain with F137S, G165E
notes: as for B6
B30: αL I domain clone m14 (I288N), yeast-displayed (receptor)
chain: B4 chain with I160N, G165E
notes: as for B6
B31: αL I domain clone m4 (F134L, K252E, F265S), yeast-displayed (receptor)
chain: B4 chain with F6L, K124E, F137S, G165E
notes: as for B6
B32: αL I domain clone m12 (I150T, G246V, F299L, I309T), yeast-displayed (receptor)
chain: B4 chain with I22T, G118V, G165E, F171L, I181T
notes: as for B6
B33: αL I domain clone m5 (L274I, S279T), yeast-displayed (receptor)
chain: B4 chain with L146I, S151T, G165E
notes: as for B6

Biological target: T1, ICAM-1-Fcγ (ICAM-1 residues of 1-480 fused to the Fc of human IgG, R&D Systems) (human, UniProt P05362 28-480)
T1 construct: range 1-480; Bought (R&D Systems); also called ICAM-1-Fcγ chimera; not shown: Fc of human IgG
Experiment: SPR (Biacore)
Experimental: Sensograms show the binding of the I domain mutants (F292A, F265S, F292G, and F265S/F292G) to ICAM-1-Fcγ-coated sensor chip. In all sensograms, the signals from the control surface, as described in Materials and Methods, were subtracted. I domain mutants were injected in a series of concentrations starting from 100 μM for F292A and 1 μM for F292G, F265S, and F265S/F292G, and the subsequent concentrations were by two-fold serial dilutions.
(§1) Mutant I domains (F265S, F292A, F292G, F265S/F292G, and HA) with residues of Asn-129 to Tyr-307 were expressed in Escherichia coli BL21 (DE3) (Novagen), refolded, and purified as described previously⁶. ICAM-1-Fcγ-coupled or mock-coupled CM5 sensor chip as control was prepared using the amine coupling kit (BIAcore, Piscataway, N.J.), as described previously³³. Surface plasmon resonance was measured using Biacore 3000. I domains were injected over the chip in 20 mM Tris HCl, pH 8.0, 150 mM NaCl, 10 mM MgCl₂, at a flow rate of 10 μl/min at room temperature.
(§2) The values shown in the table are mean ± SD from three independent measurements. The parameters of kₒₙ, koff, and Kd were calculated by fitting the 1:1 Langmuir binding model to the Biacore sensogram. The values were from the previous studies ⁶.

T1 sequence (P05362 28-480 limits assumed, form in doubt): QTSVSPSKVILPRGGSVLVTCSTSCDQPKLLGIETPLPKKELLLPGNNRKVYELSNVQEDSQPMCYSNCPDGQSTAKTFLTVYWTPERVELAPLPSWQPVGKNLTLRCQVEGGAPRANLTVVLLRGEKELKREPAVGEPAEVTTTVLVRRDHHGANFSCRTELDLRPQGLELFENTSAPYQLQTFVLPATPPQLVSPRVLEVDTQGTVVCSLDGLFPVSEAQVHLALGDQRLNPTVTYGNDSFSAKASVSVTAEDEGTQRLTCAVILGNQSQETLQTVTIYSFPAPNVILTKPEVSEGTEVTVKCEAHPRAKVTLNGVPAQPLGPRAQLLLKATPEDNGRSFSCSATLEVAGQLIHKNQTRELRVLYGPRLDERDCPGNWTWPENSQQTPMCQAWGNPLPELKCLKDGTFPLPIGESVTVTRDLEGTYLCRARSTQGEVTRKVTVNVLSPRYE

fold higher affinity compared to the F292A mutant	fold slower dissociation rate than the F292A mutant	Binder
170 fold	100 fold	B1
–	100 fold	B2

Biological target: T1, ICAM-1-Fcγ (ICAM-1 residues of 1-480 …)
Experiment: SPR (Biacore); wild-type value from a previous study

fold decrease in dissociation-rate (against wild type)	fold increase in affinity (against wild type)	Binder
1000 fold	10000 fold	B1
–	75 fold	B3
1000 fold	10000 fold	B2

Biological target: ICAM-1-Fcγ (ICAM-1 residues of 1-480 fused to the Fc of human IgG, R&D Systems) (human) (UniProt P05362)
Experiment: flow cytometry on yeast-displayed I domain, ICAM-1-Fcγ 10 µg/ml

Sequence of ICAM-1-Fcγ (ICAM-1 residues of 1-480 fused to the Fc of human IgG, R&D Systems) (human) (P05362 28-480 limits assumed): as the sequence (P05362 28-480 limits assumed, form in doubt) above

ICAM-1 (% ASFI of HA)	Binder
4 % ASFI of HA	B4
1 % ASFI of HA	B5

Biological target: T1, ICAM-1-Fcγ (ICAM-1 residues of 1-480 …)
Experiment: as above
Experimental: Cells that were cultured only in SD-CAA or further induced in SG-CAA were harvested, washed with 100 μl of labeling buffer (PBS, 0.5% BSA, 10 mM MgCl₂), and then incubated with ligands at 10 μg/ml in 50 μl of the labeling buffer for 20 min with shaking at 30° C. in a 96-well V-bottom plate. Ligands used in this study were anti-c-myc antibody 9E10 (Santa Cruz Biotechnology, CA) and anti-hemagglutinin antibody 12CA5 (Roche Applied Science), αL I domain-specific antibodies TS1/22 and MEM83³², and ICAM-1-Fcγ (ICAM-1 residues of 1-480 fused to the Fc of human IgG, R&D Systems). After incubation with the primary ligands, cells were washed once in 100 μl of the labeling buffer and incubated with the fluorescence-conjugated secondary antibodies at 5 μg/ml in 50 μl of the labeling buffer for 20 min at 4° C. Finally, cells were washed once in 100 μl and suspended in 100 μl of the labeling buffer for flow cytometry (FACScan, BD Biosciences).
A total of twenty-five yeast colonies were picked from SD-CAA plates from the libraries selected with ICAM-1-Fcγ. These clones were tested for binding of ICAM-1-Fcγ, and sequenced (Table 1). Of these, 15 had unique sequences and were designated as m1 to m15, and all bound ICAM-1 better than wild-type (Table 1). Five clones contained single mutations, and the remainder contained 2-5 mutations each (Table 1). From the clones containing multiple mutations, one to three residues were selected and independently tested as a single substitution (designated with a, b, or c suffix) or independently isolated from the ratchet residue library (see below).

ICAM-1 (% ASFI of HA)	Binder
47 % ASFI of HA	B6
10 % ASFI of HA	B7
17 % ASFI of HA	B8
16 % ASFI of HA	B9
110 % ASFI of HA	B10
81 % ASFI of HA	B11
4 % ASFI of HA	B12
25 % ASFI of HA	B13
30 % ASFI of HA	B14
5 % ASFI of HA	B15
91 % ASFI of HA	B16
28 % ASFI of HA	B17
74 % ASFI of HA	B18
4 % ASFI of HA	B19
54 % ASFI of HA	B20
10 % ASFI of HA	B21
33 % ASFI of HA	B22
5 % ASFI of HA	B23
29 % ASFI of HA	B24
91 % ASFI of HA	B25
107 % ASFI of HA	B26
24 % ASFI of HA	B27
51 % ASFI of HA	B28
123 % ASFI of HA	B29
14 % ASFI of HA	B30
31 % ASFI of HA	B31
27 % ASFI of HA	B32
51 % ASFI of HA	B33

Biological target: T1, ICAM-1-Fcγ (ICAM-1 residues of 1-480 …)
Experiment: SPR (Biacore 3000), I domain injected over ICAM-1-Fcγ-coupled CM5 chip, 10 mM MgCl2
Experimental: as §1
Several of the most activating mutants were expressed in Escherichia coli and refolded in order to measure the kinetics of binding to ICAM-1 by surface plasmon resonance (FIG. 2). Data are shown in Table 2, and for comparison are shown kinetics measured for the wild-type and disulfide-bonded IA and HA mutants in a previous study⁶, and for the same disulfide-bonded HA mutant in the current study.
as §2

Kd	koff	kon	Binder
119 nM	0.0019 s⁻¹	16000 M⁻¹ s⁻¹	B1
20000 nM	0.19 s⁻¹	9500 M⁻¹ s⁻¹	B3
145 nM	0.0017 s⁻¹	11800 M⁻¹ s⁻¹	B2
